B1: synthetic peptide homologous to TGF-β1, CCVRQLYIDFRKDLG (peptide)
peptide: CCVRQLYIDFRKDLG
B2: synthetic peptide homologous to PDGF-BB, CKTRTEVFEISRRLI (peptide)
peptide: CKTRTEVFEISRRLI
B3: IIICS, variably-spliced domain of fibronectin (other, human)
chain: MGSDELPQLVTLPHPNLHGPEILDVPSTVQKTPFVTHPGYDTGNGIQLPGTSGQQPSVGQQMIFEEHGFRRTTPPTTATPIRHRPRPYPPNVGEEIQIGHIPREDVDYHLYPHGPGLNPNASTTSHHHHHHC
notes: domain: IIICS; The IIICS construct is not described separately
B4: peptide 1 (FN634-658) QPSHISKYILRWRPKNSVGRWKEAT (peptide)
peptide: QPSHISKYILRWRPKNSVGRWKEAT
notes: A Cys-tagged form was used in the FN-null cell assay; also called P1
B5: peptide 2 (FN680-704) QLISIQQYGHQEVTRFDFTTTSTST (peptide)
peptide: QLISIQQYGHQEVTRFDFTTTSTST
notes: also called P2
B6: peptide 3 NGQTPIQRTIKPDVRSYTITGLQPGT (peptide)
peptide: NGQTPIQRTIKPDVRSYTITGLQPGT
notes: also called P3; FN1852-877 (so in the source)
B7: peptide 4 (FN2043-2067) QPSVGQQMIFEEHGFRRTTPPTTAT (peptide)
peptide: QPSVGQQMIFEEHGFRRTTPPTTAT
notes: also called P4
B8: EGF (ligand, UniProt P01133 971-1023, looked up)
chain: NSDSECPLSHDGYCLHDGVCMYIEALDKYACNCVVGYIGERCQYRDLKWWELR

Columns and labels:
[1] = target: T1, intact human plasma fibronectin (FN) (human, UniProt P02751 32-2477); test: competition: I-125 TGF-β1 bound to intact human plasma FN adsorbed on plastic (0.125 µM, blocked with 2% BSA), 25°C, 2 h, with rising peptide; % of binding without peptide, n=3 [left panel]
T1 construct: Adsorbed to plastic or coupled to agarose beads in the assays; The background calls plasma FN a disulfide-linked dimer; also called intact FN
T1 sequence (P02751 other isoform, or with tags, fused parts or gaps limits assumed): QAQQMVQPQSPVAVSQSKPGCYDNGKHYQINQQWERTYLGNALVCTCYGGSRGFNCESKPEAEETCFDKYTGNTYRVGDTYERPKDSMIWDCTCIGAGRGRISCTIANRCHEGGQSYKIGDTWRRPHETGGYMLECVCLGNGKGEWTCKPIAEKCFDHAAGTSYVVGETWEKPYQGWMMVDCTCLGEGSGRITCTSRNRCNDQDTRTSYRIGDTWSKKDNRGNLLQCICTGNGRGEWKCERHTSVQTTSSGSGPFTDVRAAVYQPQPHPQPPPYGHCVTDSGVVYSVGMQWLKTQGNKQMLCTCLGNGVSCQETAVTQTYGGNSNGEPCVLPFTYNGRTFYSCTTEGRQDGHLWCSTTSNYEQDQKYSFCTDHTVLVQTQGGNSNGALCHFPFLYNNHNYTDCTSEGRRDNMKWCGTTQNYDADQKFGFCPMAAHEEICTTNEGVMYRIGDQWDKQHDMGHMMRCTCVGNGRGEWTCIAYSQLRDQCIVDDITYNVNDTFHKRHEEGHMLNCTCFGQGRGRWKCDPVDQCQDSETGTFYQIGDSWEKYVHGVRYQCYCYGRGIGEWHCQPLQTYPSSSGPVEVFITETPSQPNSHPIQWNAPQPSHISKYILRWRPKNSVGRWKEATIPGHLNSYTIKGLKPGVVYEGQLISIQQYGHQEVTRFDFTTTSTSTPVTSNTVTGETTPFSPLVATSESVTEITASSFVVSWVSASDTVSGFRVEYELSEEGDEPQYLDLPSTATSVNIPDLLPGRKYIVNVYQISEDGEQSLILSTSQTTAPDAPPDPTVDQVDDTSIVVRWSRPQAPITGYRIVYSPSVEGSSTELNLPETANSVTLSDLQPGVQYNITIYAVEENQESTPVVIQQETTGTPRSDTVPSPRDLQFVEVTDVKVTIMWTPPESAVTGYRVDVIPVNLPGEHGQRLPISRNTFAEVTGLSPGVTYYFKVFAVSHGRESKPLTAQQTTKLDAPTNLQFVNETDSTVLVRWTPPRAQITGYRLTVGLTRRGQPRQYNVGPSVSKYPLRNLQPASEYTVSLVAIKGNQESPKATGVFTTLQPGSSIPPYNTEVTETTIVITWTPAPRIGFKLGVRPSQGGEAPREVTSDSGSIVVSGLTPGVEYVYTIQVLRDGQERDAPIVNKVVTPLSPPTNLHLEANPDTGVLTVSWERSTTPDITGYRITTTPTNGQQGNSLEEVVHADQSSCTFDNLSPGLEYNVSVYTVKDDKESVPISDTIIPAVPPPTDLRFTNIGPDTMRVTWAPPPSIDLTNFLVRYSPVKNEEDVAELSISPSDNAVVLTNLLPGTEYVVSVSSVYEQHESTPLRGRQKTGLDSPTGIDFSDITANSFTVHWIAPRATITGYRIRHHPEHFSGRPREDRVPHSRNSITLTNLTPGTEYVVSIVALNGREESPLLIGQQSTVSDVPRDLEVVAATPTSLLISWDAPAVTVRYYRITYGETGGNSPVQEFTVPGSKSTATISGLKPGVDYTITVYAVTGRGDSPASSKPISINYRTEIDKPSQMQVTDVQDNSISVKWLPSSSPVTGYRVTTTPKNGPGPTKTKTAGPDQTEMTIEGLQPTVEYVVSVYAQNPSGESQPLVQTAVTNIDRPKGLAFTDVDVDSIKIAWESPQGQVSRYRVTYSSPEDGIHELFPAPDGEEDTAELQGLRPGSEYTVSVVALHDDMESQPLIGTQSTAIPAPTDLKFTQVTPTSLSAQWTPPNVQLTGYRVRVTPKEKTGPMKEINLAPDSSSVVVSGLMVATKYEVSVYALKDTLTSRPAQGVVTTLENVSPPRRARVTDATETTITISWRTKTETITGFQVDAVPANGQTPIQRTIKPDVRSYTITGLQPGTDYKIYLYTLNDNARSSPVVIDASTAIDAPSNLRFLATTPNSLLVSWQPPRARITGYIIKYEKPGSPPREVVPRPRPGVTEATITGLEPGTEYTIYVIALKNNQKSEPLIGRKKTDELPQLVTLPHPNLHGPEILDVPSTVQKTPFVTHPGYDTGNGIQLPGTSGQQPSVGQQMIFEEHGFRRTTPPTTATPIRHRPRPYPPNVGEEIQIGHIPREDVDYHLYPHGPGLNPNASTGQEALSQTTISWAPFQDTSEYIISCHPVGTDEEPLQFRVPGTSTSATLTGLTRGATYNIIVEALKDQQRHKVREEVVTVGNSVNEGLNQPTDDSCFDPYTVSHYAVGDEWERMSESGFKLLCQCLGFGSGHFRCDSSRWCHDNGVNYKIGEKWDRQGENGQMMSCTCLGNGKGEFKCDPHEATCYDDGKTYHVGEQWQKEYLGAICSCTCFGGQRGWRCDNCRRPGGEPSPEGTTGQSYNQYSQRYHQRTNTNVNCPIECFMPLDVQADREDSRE
Protocol: (§1) Figure 9: FIG. 9. Inhibition of TGF-β1 and PDGF-BB binding to intact human plasma FN with TGF-β1 and PDGF-BB FN-binding peptides, respectively. FN was adsorbed onto tissue culture plastic at a concentration of 0.125 μM and then excess protein-binding sites of the plastic blocked with 2% bovine serum albumin. Growth factor labeled with I^125 was incubated with FN-coated plates at 25° C. for 2 hours in the presence or absence of peptide. Data was calculated as [(GF binding in presence of peptide–background)/(GF binding in absence of peptide-background)]×100. n=3.
(§2) Two of these synthetic peptides (homologous to TGF-β1 and homologous to PDGF-BB) inhibit TGF-β1 and PDGF-BB binding to FN respectively (FIG. 9). Inhibition of TGF-β1 and PDGF-BB binding to intact human plasma FN was determined as follows. FN was adsorbed onto tissue culture plastic at a concentration of 0.125 μM and then excess protein-binding sites of the plastic blocked with 2% bovine serum albumin. Growth factor labeled with I^125 was incubated with FN-coated plates at 25° C. for 2 hours in the presence or absence of peptide. For example, relative binding of TGF-β1 to immobilized FN was determined for increasing concentrations of the synthetic peptide homologous to TGF-β1. […] For example, relative binding of PDGF-BB to immobilized FN was determined for increasing concentrations of the synthetic peptide homologous to PDGF-BB. […]

[2] = target: T1, intact human plasma fibronectin (FN); test: competition: I-125 PDGF-BB bound to intact human plasma FN adsorbed on plastic (0.125 µM, blocked with 2% BSA), 25°C, 2 h, with rising peptide; % of binding without peptide, n=3 [right panel]
Protocol: as §1, §2

FGF-1 = FGF-1 (UniProt P05230 16-155, limits assumed); test: equilibrium and kinetic binding
Sequence of FGF-1 (P05230 16-155 limits assumed): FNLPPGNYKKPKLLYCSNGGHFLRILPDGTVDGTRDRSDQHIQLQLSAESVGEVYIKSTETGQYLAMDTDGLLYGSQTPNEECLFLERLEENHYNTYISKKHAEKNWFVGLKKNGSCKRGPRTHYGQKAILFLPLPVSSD

[3] = target: T2, basic fibroblast growth factor (bFGF, FGF-2) (human, UniProt P09038 143-288, limits assumed); test: equilibrium or kinetic binding, not said which
T2 sequence (P09038 143-288 limits assumed): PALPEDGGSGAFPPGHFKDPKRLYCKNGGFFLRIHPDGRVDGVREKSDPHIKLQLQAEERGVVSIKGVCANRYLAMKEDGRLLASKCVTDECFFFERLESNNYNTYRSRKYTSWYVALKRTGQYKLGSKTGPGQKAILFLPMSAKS

[4] = target: T2, basic fibroblast growth factor (bFGF, …); test: method not restated in the sentence
TGF-α = TGF-α (UniProt P01135 40-89); test: equilibrium and kinetic binding
Sequence of TGF-α (P01135 40-89 limits assumed): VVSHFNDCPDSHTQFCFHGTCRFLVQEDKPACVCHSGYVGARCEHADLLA

EGF = target: B8; test: equilibrium and kinetic binding
[5] = target: T2, basic fibroblast growth factor (bFGF, …); test: peptide binding to the GF
[6] = target: T3, FNIII12-V15 (HV), composite heparinII-binding and variably-spliced IIICS domains of fibronectin (human, UniProt P02751 1812-2288); test: plasmon resonance modulation
T3 construct: domain: FNIII12-V15; Recombinant, from E. coli; Some constructs carry GST at the C-terminus
T3 sequence (P02751 other isoform, or with tags, fused parts or gaps limits assumed): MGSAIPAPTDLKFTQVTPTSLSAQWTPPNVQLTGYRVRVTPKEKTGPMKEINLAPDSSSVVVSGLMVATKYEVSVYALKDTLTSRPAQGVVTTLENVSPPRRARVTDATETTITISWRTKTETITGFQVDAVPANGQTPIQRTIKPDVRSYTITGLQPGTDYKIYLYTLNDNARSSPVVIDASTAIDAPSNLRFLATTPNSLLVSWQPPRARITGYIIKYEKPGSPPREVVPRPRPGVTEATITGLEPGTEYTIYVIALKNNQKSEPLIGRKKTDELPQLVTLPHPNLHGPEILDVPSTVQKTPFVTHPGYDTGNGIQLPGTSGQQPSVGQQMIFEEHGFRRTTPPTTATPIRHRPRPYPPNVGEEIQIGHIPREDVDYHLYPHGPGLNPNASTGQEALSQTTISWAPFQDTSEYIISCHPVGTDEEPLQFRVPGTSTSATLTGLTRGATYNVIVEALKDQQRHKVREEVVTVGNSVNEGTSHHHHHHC

FNIII1-7 = target: T4, FNIII1-7 (human, UniProt P02751 610-1266, limits assumed); test: equilibrium and kinetic binding
T4 construct: domain: FNIII1-7; This construct is not described separately
T4 sequence (P02751 other isoform, or with tags, fused parts or gaps limits assumed): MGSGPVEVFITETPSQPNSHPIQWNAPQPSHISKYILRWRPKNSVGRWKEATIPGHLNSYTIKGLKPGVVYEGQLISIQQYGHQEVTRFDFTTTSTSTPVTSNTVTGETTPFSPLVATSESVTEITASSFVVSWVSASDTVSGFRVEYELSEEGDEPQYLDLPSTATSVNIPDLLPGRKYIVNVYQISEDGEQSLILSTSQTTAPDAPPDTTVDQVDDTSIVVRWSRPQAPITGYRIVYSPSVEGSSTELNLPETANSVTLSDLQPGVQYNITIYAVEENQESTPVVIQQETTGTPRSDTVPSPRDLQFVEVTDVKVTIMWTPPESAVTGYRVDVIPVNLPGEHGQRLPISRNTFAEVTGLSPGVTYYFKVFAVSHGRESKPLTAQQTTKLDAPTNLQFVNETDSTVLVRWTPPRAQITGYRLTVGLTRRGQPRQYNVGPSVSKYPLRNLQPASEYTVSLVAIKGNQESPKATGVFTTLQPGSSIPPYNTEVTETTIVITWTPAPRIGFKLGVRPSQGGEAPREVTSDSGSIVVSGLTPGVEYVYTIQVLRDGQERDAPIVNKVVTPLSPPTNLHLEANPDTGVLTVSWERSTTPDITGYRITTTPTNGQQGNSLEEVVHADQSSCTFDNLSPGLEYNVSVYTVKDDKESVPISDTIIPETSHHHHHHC

FNIII3-6 = target: T5, FNIII3-6 (human, UniProt P02751 813-1175, limits assumed); test: equilibrium and kinetic binding
T5 construct: domain: FNIII3-6; Recombinant; also called FNII3-6 [sic]
T5 sequence (P02751 other isoform, or with tags, fused parts or gaps limits assumed): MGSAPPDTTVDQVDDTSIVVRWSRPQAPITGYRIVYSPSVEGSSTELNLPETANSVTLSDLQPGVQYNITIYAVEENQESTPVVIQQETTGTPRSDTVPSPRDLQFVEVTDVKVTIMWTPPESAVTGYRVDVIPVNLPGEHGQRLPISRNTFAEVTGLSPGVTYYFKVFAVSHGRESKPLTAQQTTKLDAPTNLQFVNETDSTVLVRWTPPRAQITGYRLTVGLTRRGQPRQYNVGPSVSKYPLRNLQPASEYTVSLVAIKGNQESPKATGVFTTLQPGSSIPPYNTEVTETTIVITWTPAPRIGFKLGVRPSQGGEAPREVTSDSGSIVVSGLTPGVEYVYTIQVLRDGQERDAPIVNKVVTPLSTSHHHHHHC

[7] = target: T6, FNIII8-11 (C), classic cell-binding domain of fibronectin containing RGD (human, UniProt P02751 1358-1721); test: equilibrium and kinetic binding
T6 construct: domain: FNIII8-11; Recombinant

[8] = target: T7, FN70, the 70 kDa amino terminus of fibronectin (UniProt P02751 32-608, limits assumed); test: equilibrium and kinetic binding
T7 construct: domain: FN70 (70 kDa amino terminus); also called amino-terminal end of FN

[9] = target: B3; test: binding to FN functional domains
[10] = target: T8, FNIII12-15 (H), heparinII-binding domain of fibronectin (human, UniProt P02751-10 1631-1987); test: binding to FN functional domains
T8 construct: domain: FNIII12-15; Recombinant

FNIII1 = target: T9, FNIII1 (human, UniProt P02751 610-702, limits assumed); test: binding to FN functional domains
T9 construct: domain: FNIII1; Recombinant; also called FNIIII [sic]
T9 sequence (P02751 other isoform, or with tags, fused parts or gaps limits assumed): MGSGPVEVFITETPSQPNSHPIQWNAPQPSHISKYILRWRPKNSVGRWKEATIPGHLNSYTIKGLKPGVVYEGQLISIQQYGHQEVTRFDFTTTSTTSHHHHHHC

FNIII1-2 = target: T10, FNIII1-2 (human, UniProt P02751 610-812, limits assumed); test: binding to FN functional domains
T10 construct: domain: FNIII1-2; Recombinant
T10 sequence (P02751 other isoform, or with tags, fused parts or gaps limits assumed): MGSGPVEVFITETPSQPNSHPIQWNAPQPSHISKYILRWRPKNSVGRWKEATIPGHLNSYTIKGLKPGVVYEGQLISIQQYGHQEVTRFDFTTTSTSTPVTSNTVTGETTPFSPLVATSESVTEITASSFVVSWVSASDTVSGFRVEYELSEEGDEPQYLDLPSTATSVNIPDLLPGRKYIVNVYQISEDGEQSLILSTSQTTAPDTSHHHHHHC

FNIII1-11 = target: T11, FNIII1-11 (human, UniProt P02751-8 610-1630); test: binding to FN functional domains
T11 construct: domain: FNIII1-11; Recombinant

FNIII12-14 = target: T12, FNIII12-14 (human, UniProt P02751 1812-2082); test: binding to FN functional domains
T12 construct: domain: FNIII12-14; Recombinant
T12 sequence (P02751 other isoform, or with tags, fused parts or gaps limits assumed): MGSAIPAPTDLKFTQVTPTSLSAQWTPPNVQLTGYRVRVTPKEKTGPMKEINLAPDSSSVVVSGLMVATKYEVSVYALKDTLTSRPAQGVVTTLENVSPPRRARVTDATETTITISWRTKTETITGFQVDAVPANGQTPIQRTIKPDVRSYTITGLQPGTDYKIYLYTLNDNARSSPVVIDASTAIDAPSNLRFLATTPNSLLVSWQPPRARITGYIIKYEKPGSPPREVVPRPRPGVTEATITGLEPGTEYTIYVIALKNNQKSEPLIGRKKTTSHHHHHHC

FNIII2 = target: T13, FNIII2 (human, UniProt P02751 722-812, limits assumed); test: binding to FN functional domains
T13 construct: domain: FNIII2; Recombinant
T13 sequence (P02751 other isoform, or with tags, fused parts or gaps limits assumed): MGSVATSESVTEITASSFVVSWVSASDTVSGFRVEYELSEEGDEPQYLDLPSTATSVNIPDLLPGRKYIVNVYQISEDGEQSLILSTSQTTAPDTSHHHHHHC

[11] = target: T1, intact human plasma fibronectin (FN); test: equilibrium binding to FN adsorbed to a surface or coupled to agarose beads

Binder | binding result (FGF-1) | binding result (TGF-α) | binding result (EGF) | binding result [5] | further results
B1 |  |  |  |  | IC50 (read off the curve) [1]: ~8000 nM
B2 |  |  |  |  | binding result [2]: binds
B3 | no binding |  |  |  | Kd [3]: 58 nM; Kd [4]: ~100 nM
B4 | no binding | no binding | no binding | binds | 
B5 | no binding | no binding | no binding | binds | 
B6 | no binding | no binding | no binding | binds | 
B7 | no binding | no binding | no binding | binds | 
B8 |  |  |  |  | binding result [6]: no binding; binding result (FNIII1-7): no binding; binding result (FNIII3-6): no binding; binding result [7]: no binding; binding result [8]: no binding; binding result [9]: no binding; binding result [10]: no binding; binding result (FNIII1): no binding; binding result (FNIII1-2): no binding; binding result (FNIII1-11): no binding; binding result (FNIII12-14): no binding; binding result (FNIII2): no binding; binding result [11]: no binding
